Assay results: patent US20250177530A1 (UNIVERSITY OF PITTSBURGH OF THE COMMONWEALTH SYSTEM OF …, published 2025)
Substitutions are numbered along the chain they refer to. Names may count otherwise.

T1: recombinant human ENPP1 extracellular domain fused with a His6-FLAG tag (human)
T1 construct: Expressed in Expi293 cells and purified on nickel resin; It was coated at 50 ng/well in the ELISAs and captured in biotinylated form on streptavidin biosensors in BLItz; also called ENPP1-His; rhENPP1
T1 sequence (P22413 98-925, looked up): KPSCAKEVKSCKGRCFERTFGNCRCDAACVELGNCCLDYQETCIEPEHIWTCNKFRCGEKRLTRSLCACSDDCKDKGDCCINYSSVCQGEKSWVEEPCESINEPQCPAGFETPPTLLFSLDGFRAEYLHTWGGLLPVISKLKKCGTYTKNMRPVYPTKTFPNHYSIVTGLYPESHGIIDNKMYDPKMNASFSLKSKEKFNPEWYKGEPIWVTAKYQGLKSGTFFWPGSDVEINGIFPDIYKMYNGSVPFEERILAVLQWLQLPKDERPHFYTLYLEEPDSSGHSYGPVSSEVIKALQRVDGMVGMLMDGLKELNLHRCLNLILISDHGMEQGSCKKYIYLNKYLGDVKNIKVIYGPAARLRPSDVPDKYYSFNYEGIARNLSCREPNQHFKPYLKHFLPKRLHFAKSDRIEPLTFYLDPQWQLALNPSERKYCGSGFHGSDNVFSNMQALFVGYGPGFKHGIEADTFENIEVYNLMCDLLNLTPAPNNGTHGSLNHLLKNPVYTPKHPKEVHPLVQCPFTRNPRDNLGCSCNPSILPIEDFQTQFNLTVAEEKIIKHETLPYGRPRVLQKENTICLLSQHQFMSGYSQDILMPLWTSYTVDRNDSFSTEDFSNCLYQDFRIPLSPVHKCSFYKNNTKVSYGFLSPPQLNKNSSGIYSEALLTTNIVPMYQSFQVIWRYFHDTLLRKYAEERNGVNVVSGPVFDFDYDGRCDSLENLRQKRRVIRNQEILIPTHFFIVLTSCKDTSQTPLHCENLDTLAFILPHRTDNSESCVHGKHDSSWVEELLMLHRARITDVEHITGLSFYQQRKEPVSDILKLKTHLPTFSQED

B1: Fab 17 (Fab, V domains shown)
VH: QVQLVESGGGLVKPGGSLRLSCAASGFTFSDYYMSWIRQAPGKGLEWVSYISSSGSTIYYADSVKGRFTISRDNAKNSLYLQMNSLRAEDTAVYYCAREVYYYDSSGYYTYYFDYWGQGTLVTVSS
VL: DIQMTQSPSSLSASVGDRVTITCRASQSISSYLNWYQQKPGKAPKLLIYAASSLQSGVPSRFSGSGSGTDFTLTISSLQPEDAATYYCQQYDTFPLTFGGGTKVEIKR
notes: Human Fab from a phage library, expressed in E. coli and purified on Ni-NTA; also called 17-Fab; Clone #1 (Fab)
B2: IgG1 17 (antibody, V domains shown)
VH: B1 VH
VL: B1 VL
notes: also called hIgG1 17; IgG 17
B3: Fab 3G12 (Fab, V domains shown)
VH: B1 VH
VL: B1 VL with A83V, T85V, D92Y, F94S, P95R, L96I, G100Q, V104L
notes: Same heavy chain as Fab 17, different light chain; Expressed in E. coli and purified on Ni-NTA; also called 3G12-Fab; Clone #2 (Fab)
B4: IgG1 3G12 (antibody, V domains shown)
VH: B1 VH
VL: B1 VL with A83V, T85V, D92Y, F94S, P95R, L96I, G100Q, V104L
notes: Bivalent human IgG1 converted from Fab 3G12, expressed in Expi293 cells and purified on Protein A; also called hIgG1 3G12
B5: scFv 17 (scFv)
scFv: DIQMTQSPSSLSASVGDRVTITCRASQSISSYLNWYQQKPGKAPKLLIYAASSLQSGVPSRFSGSGSGTDFTLTISSLQPEDAATYYCQQYDTFPLTFGGGTKVEIKGGGGSGGGGSGGGGSQVQLVESGGGLVKPGGSLRLSCAASGFTFSDYYMSWIRQAPGKGLEWVSYISSSGSTIYYADSVKGRFTISRDNAKNSLYLQMNSLRAEDTAVYYCAREVYYYDSSGYYTYYFDYWGQGTLVTVSS
notes: VL-(G4S)3-VH orientation; Expressed in E. coli; also called scFv format antibody 17; not shown: C-terminal FLAG tag used for detection; The protein was purified on Ni-NTA
B6: scFv 3G12 (scFv)
scFv: B5 scFv with A83V, T85V, D92Y, F94S, P95R, L96I, G100Q, V104L
notes: VL-(G4S)3-VH orientation; Expressed in E. coli; also called scFv format antibody 3G12; not shown: C-terminal FLAG tag used for detection; The protein was purified on Ni-NTA

Key:
BSA = target: T2, BSA (UniProt P02769 25-607); assay: ELISA on BSA
T2 construct: Specificity control antigen in ELISA

[1] = target: T1, recombinant human ENPP1 extracellular …; assay: BLItz biolayer interferometry, biotinylated ENPP1 on streptavidin biosensor
Method: (§1) The affinity and avidity of the anti-hENPP1 antibody were detected by biolayer interferometry BLItz (ForteBio, Menlo Park, CA, USA). Briefly, DPBS was used to establish a baseline for 30 seconds, and streptavidin biosensor (ForteBio) was coated with 16.7 μg/mL recombinant ENPP1-Biotin for 2 minutes. […] Antigen-coated biosensors with PBS served as a reference control. The dissociation was monitored in DPBS for 4 minutes.

[2] = target: T1, recombinant human ENPP1 extracellular …; assay: ELISA, ENPP1-His coated at 50 ng/well, anti-FLAG-HRP detection
Method: (§2) The binding and specificity of Fab, scFv, and IgG1 to ENPP1 were analyzed by ELISA. Briefly, ENPP1-His protein was coated at 50 ng/well at 4° C. overnight and blocked with 5% milk for 2 hours at room temperature. After three times washing with PBST, they were incubated with 3-fold serially diluted Fab, scFv, or IgG1 for 1 hour at 37° C. For Fab and scFv detection via the FLAG tag present at the C-terminus, further incubation was performed with anti-FLAG M2-peroxidase (HRP) antibody (A8592, Sigma-Aldrich, St. Louis, MO, USA) for another 1 hour. For the IgG1, HRP-conjugated goat anti-human IgG1 Fc (Sigma-Aldrich, St. Louis, MO, USA) was used for detection.

[3] = target: T1, recombinant human ENPP1 extracellular …; assay: BLItz biolayer interferometry, biotinylated ENPP1 on a streptavidin biosensor
Method: as §1

[4] = target: T1, recombinant human ENPP1 extracellular …; assay: ELISA, ENPP1-His coated at 50 ng/well, anti-human IgG1 Fc-HRP detection
Method: as §2

[5] = target: T1, recombinant human ENPP1 extracellular …; assay: BLItz biolayer interferometry, biotinylated ENPP1 on streptavidin biosensor (avidity, bivalent IgG1)
Method: as §1

T2 sequence (P02769 25-607 limits assumed): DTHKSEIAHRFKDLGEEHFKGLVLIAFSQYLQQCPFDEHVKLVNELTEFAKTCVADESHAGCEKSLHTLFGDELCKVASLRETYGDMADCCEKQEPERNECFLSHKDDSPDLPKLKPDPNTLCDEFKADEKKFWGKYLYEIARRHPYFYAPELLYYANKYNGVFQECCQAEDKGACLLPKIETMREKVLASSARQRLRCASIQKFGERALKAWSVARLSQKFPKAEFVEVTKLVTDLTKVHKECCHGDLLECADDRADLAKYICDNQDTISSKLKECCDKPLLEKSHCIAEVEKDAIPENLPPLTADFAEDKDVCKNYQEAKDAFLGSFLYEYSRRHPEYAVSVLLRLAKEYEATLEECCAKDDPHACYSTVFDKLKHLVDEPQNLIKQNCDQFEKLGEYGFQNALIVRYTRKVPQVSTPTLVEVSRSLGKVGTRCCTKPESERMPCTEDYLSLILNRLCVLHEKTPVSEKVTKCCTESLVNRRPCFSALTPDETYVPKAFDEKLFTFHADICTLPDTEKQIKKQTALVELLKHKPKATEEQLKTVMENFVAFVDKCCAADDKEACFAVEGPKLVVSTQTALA

Row | Binder | binding result (BSA) | Kd [1] | koff [1] | kon [1] | EC50 [2] | koff [3] | kon [3] | EC50 [4] | Kd [5] | koff [5] | kon [5]
1 | B1 | no binding | 61.4 nM | 0.0044 s⁻¹ | 72000 M⁻¹ s⁻¹ | 13.9 nM | 0.00441 s⁻¹ | 71800 M⁻¹ s⁻¹ | – | – | – | –
2 | B2 | – | – | – | – | – | – | – | 0.14 nM | 6.7 nM | 0.0042 s⁻¹ | 630000 M⁻¹ s⁻¹
3 | B3 | no binding | 35.5 nM | 0.0018 s⁻¹ | 52000 M⁻¹ s⁻¹ | 2.6 nM | 0.00184 s⁻¹ | 51900 M⁻¹ s⁻¹ | – | – | – | –
4 | B4 | – | – | – | – | – | – | 516000 M⁻¹ s⁻¹ | 0.24 nM | 4.2 nM | 0.0021 s⁻¹ | 520000 M⁻¹ s⁻¹
5 | B5 | – | – | – | – | 6.4 nM | – | – | – | – | – | –
6 | B6 | – | – | – | – | 52.2 nM | – | – | – | – | – | –
